{
  "source": "IntAct's records for PubMed 31515488",
  "parents": {"B1": {"name": "Splicing factor 45 (Homo sapiens), Q96I25 (parent)", "chain": "MSLYDDLGVETSDSKTEGWSKNFKLLQSQLQVKKAALTQAKSQRTKQSTVLAPVIDLKRGGSSDDRQIVDTPPHVAAGLKDPVPSGFSAGEVLIPLADEYDPMFPNDYEKVVKRQREERQRQRELERQKEIEEREKRRKDRHEASGFARRPDPDSDEDEDYERERRKRSMGGAAIAPPTSLVEKDKELPRDFPYEEDSRPRSQSSKAAIPPPVYEEQDRPRSPTGPSNSFLANMGGTVAHKIMQKYGFREGQGLGKHEQGLSTALSVEKTSKRGGKIIVGDATEKDASKKSDSNPLTEILKCPTKVVLLRNMVGAGEVDEDLEVETKEECEKYGKVGKCVIFEIPGAPDDEAVRIFLEFERVESAIKAVVDLNGRYFGGRVVKACFYNLDKFRVLDLAEQV", "partner": "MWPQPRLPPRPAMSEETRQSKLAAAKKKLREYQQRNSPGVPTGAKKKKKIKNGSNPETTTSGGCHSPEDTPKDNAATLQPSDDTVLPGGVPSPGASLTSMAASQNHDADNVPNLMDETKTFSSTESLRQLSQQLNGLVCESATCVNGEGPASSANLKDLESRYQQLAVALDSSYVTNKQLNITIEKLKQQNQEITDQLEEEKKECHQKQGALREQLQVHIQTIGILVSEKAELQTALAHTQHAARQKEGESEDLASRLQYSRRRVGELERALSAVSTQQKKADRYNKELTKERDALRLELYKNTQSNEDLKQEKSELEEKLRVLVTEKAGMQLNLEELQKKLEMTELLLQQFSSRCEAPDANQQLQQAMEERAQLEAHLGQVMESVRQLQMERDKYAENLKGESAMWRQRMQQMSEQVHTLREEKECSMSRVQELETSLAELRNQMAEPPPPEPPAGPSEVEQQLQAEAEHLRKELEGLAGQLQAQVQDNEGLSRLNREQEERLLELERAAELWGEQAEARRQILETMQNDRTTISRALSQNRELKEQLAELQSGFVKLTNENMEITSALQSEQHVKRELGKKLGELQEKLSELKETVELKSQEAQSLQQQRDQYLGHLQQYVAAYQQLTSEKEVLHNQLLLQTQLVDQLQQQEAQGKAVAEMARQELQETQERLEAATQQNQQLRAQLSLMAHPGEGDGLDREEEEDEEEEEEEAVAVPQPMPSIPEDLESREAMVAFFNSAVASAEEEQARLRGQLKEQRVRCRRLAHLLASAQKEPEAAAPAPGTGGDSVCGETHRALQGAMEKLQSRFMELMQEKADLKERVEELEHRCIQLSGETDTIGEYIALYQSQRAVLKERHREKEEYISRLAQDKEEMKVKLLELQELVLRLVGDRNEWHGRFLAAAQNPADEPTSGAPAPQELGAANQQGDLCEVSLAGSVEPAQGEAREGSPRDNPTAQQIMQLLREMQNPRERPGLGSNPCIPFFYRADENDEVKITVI"}, "B2": {"name": "Nuclear pore glycoprotein p62 (Homo sapiens), P37198 (parent)", "chain": "MSGFNFGGTGAPTGGFTFGTAKTATTTPATGFSFSTSGTGGFNFGAPFQPATSTPSTGLFSLATQTPATQTTGFTFGTATLASGGTGFSLGIGASKLNLSNTAATPAMANPSGFGLGSSNLTNAISSTVTSSQGTAPTGFVFGPSTTSVAPATTSGGFSFTGGSTAQPSGFNIGSAGNSAQPTAPATLPFTPATPAATTAGATQPAAPTPTATITSTGPSLFASIATAPTSSATTGLSLCTPVTTAGAPTAGTQGFSLKAPGAASGTSTTTSTAATATATTTSSSSTTGFALNLKPLAPAGIPSNTAAAVTAPPGPGAAAGAAASSAMTYAQLESLINKWSLELEDQERHFLQQATQVNAWDRTLIENGEKITSLHREVEKVKLDQKRLDQELDFILSQQKELEDLLSPLEELVKEQSGTIYLQHADEEREKTYKLAENIDAQLKRMAQDLKDIIEHLNTSGAPADTSDPLQQICKILNAHMDSLQWIDQNSALLQRKVEEVTKVCEGRRKEQERSFRITFD", "partner": "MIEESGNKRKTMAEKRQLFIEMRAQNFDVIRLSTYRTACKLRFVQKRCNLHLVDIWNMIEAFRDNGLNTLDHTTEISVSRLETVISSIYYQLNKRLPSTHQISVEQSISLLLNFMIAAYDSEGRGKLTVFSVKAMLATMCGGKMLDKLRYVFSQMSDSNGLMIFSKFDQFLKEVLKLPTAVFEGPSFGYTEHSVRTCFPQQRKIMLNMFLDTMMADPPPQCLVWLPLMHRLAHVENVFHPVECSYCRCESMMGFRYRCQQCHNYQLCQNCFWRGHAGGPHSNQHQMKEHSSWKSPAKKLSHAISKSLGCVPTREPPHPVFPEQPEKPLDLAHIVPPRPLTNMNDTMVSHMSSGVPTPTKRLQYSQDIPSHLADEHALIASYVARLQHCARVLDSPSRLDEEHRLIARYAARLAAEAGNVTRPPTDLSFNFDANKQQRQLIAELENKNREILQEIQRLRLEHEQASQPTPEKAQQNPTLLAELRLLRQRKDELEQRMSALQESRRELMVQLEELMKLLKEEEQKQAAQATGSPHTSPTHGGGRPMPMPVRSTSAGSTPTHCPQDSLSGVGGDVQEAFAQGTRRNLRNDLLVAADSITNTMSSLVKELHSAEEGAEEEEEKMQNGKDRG"}, "B3": {"name": "Cyclin-H (Homo sapiens), P51946 (parent)", "chain": "MYHNSSQKRHWTFSSEEQLARLRADANRKFRCKAVANGKVLPNDPVFLEPHEEMTLCKYYEKRLLEFCSVFKPAMPRSVVGTACMYFKRFYLNNSVMEYHPRIIMLTCAFLACKVDEFNVSSPQFVGNLRESPLGQEKALEQILEYELLLIQQLNFHLIVHNPYRPFEGFLIDLKTRYPILENPEILRKTADDFLNRIALTDAYLLYTPSQIALTAILSSASRAGITMESYLSESLMLKENRTCLSQLLDIMKSMRNLVKKYEPPRSEEVAVLKQKLERCHSAELALNVITKKRKGYEDDDYVSKKSKHEEEEWTDDDLVESL", "partner": "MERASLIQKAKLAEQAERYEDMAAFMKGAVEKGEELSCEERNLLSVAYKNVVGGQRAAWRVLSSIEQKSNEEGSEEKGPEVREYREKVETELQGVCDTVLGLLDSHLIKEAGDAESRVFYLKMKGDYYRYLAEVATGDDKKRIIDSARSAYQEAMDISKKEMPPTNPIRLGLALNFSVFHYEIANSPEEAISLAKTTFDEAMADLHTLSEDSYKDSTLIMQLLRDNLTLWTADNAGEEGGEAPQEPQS"}, "B4": {"name": "Katanin p60 ATPase-containing subunit A-like 1 (Homo sapiens), Q9BW62 (parent)", "chain": "MNLAEICDNAKKGREYALLGNYDSSMVYYQGVMQQIQRHCQSVRDPAIKGKWQQVRQELLEEYEQVKSIVSTLESFKIDKPPDFPVSCQDEPFRDPAVWPPPVPAEHRAPPQIRRPNREVRPLRKEMAGVGARGPVGRAHPISKSEKPSTSRDKDYRARGRDDKGRKNMQDGASDGEMPKFDGAGYDKDLVEALERDIVSRNPSIHWDDIADLEEAKKLLREAVVLPMWMPDFFKGIRRPWKGVLMVGPPGTGKTMLAKAVATECGTTFFNVSSSTLTSKYRGESEKLVRLLFEMARFYAPTTIFIDEIDSICSRRGTSDEHEASRRVKSELLIQMDGVGGALENDDPSKMVMVLAATNFPWDIDEALRRRLEKRIYIPLPTAKGRAELLKINLREVELDPDIQLEDIAEKIEGYSGADITNVCRDASLMAMRRRINGLSPEEIRALSKEELQMPVTKGDFELALKKIAKSVSAADLEKYEKWMVEFGSA", "partner": "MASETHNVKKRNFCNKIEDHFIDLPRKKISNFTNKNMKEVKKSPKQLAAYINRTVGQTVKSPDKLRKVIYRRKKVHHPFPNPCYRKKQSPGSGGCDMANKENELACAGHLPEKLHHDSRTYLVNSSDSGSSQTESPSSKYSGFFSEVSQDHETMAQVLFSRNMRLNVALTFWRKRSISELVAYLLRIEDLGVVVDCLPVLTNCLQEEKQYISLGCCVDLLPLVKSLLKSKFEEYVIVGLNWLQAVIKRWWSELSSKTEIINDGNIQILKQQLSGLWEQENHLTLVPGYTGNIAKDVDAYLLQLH"}, "B5": {"name": "Protein boule-like (Homo sapiens), Q8N9W6 (parent)", "chain": "MQTDSLSPSPNPVSPVPLNNPTSAPRYGTVIPNRIFVGGIDFKTNESDLRKFFSQYGSVKEVKIVNDRAGVSKGYGFVTFETQEDAQKILQEAEKLNYKDKKLNIGPAIRKQQVGIPRSSIMPAAGTMYLTTSTGYPYTYHNGVAYFHTPEVTSVPPPWPSRSVCSSPVMVAQPIYQQPAYHYQATTQYLPGQWQWSVPQPSASSAPFLYLQPSEVIYQPVEIAQDGGCVPPPLSLMETSVPEPYSDHGVQATYHQVYAPSAITMPAPVMQPEPIKTVWSIHY", "partner": "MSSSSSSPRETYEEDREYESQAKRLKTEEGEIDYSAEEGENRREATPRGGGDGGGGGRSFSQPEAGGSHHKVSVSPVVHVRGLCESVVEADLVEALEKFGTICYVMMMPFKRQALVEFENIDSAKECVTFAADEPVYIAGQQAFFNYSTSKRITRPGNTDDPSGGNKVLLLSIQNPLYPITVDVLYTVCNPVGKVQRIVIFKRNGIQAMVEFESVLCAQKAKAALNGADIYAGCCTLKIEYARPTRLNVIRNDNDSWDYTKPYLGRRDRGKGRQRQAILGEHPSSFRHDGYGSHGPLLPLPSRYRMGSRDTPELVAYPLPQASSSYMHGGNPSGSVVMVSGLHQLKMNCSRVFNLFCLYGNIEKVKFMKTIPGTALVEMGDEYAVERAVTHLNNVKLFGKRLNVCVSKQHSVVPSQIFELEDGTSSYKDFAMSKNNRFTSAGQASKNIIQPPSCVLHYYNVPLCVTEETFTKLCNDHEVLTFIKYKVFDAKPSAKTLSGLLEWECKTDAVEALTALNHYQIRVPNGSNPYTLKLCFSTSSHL"}, "B6": {"name": "Tektin-4 (Homo sapiens), Q8WW24 (parent)", "chain": "MAQTVPPCELPCKEYDVARNTGAYTSSGLATASFRTSKYLLEEWFQNCYARYHQAFADRDQSERQRHESQQLATETQALAQRTQQDSTRTVGERLQDTHSWKSELQREMEALAAETNLLLAQKQRLERALDATEVPFSITTDNLQCRERREHPNLVRDHVETELLKEAELIRNIQELLKRTIMQAVSQIRLNREHKETCEMDWSDKMEAYNIDETCGRHHSQSTEVQAHPYSTTFQESASTPETRAKFTQDNLCRAQRERLASANLRVLVDCILRDTSEDLRLQCDAVNLAFGRRCEELEDARYKLHHHLHKTLREITDQEHNVAALKQAIKDKEAPLHVAQTRLYLRSHRPNMELCRDAAQFRLLSEVEELNMSLTALREKLLEAEQSLRNLEDIHMSLEKDIAAMTNSLFIDRQKCMAHRTRYPTILQLAGYQ"}},
  "data": [
    {"variants_of": "B1", "conditions": "with goga2_human GOLGA2, Q08379", "values": [
      {"variant": "T224I", "effect of a mutation on the interaction": "with no effect"}
    ]},
    {"variants_of": "B2", "conditions": "with dtnb_human DTNB", "values": [
      {"variant": "A279T", "effect of a mutation on the interaction": "with no effect"}
    ]},
    {"variants_of": "B3", "conditions": "with 1433s_human SFN", "values": [
      {"variant": "N155T", "effect of a mutation on the interaction": "with no effect"}
    ]},
    {"variants_of": "B4", "conditions": "with ktbl1_human KATNBL1, Q9H079", "values": [
      {"variant": "I142M", "effect of a mutation on the interaction": "with no effect"},
      {"variant": "A300S", "effect of a mutation on the interaction": "with no effect"},
      {"variant": "V272I", "effect of a mutation on the interaction": "with no effect"},
      {"variant": "C424S", "effect of a mutation on the interaction": "with no effect"}
    ]},
    {"variants_of": "B5", "conditions": "with hnrll_human HNRNPLL", "values": [
      {"variant": "V78I", "effect of a mutation on the interaction": "with no effect"},
      {"variant": "M270I", "effect of a mutation on the interaction": "with no effect"},
      {"variant": "S9Y", "effect of a mutation on the interaction": "with no effect"}
    ]},
    {"variants_of": "B6", "conditions": "with trip6_human TRIP6, Q15654", "values": [
      {"variant": "R64W", "effect of a mutation on the interaction": "with no effect"}
    ]},
    {"variants_of": "B6", "conditions": "with maga4_human MAGEA4, P43358", "values": [
      {"variant": "R64W", "effect of a mutation on the interaction": "with no effect"}
    ]}
  ]
}
